Measured values: publication doi:10.1101/2021.11.29.470334 (bioRxiv, 2021)

Biological target: the molecule itself
Assay: cryo-EM structure

B1: Kir6.2 from Mus musculus (mmKir6.2) H175K mutant, as the Kir6.2 subunit of H175K_(cryoEM) (natural protein)
chain: LSRKGIIPEEYVLTRLAEDPAEPRYRTRERRARFVSKKGNCNVAHKNIREQGRFLQDVFTTLVDLKWPHTLLIFTMSFLCSWLLFAMVWWLIAFAHGDLAPGEGTNVPCVTSIHSFSSAFLFSIEVQVTIGFGGRMVTEECPLAILILIVQNIVGLMINAIMLGCIFMKTAQAKRRAETLIFSKHAVITLRHGRLCFMLRVGDLRKSMIISATIHMQVVRKTTSPEGEVVPLHQVDIPMENGVGGNGIFLVAPLIIYHVIDSNSPLYDLAPSDLHHHQDLEIIVILEGVVETTGITTQARTSYLADEILWGQRFVPIVAEEDGRYSVDYSKFGNTIKVPTPLCTARQLDEDRSLLDALTLASSRGPLRKRSVAVAKAKPKFSISPDSLS
B1: binds.
